# Data reported in publication PMC5007355.
# Key:
# [1] = system: Fur (ferric uptake regulator) (Helicobacter pylori (strain G27?)); test: DNase I footprinting (full protection); conditions: apo (150 uM 2,2'-dipyridyl); site fOPII; Footprinting: 15 fmol probe in 50 ul, 300 ng salmon sperm DNA, room temperature, 150 uM Fe2+ or dipyridyl; competitive buffer 20 mM HEPES pH 7.85, 50 mM KCl, 0.
# [2] = system: Fur (ferric uptake regulator) (Helicobacter pylori (strain G27?)); test: DNase I footprinting (protection); conditions: Footprinting: 15 fmol probe in 50 ul, 300 ng salmon sperm DNA, room temperature, 150 uM Fe2+ or dipyridyl, competitive buffer 20 mM HEPES pH 7.85, 50 mM KCl, 0.
substance,measurement,setting,value
ParsR wild-type footprinting probe,binding signal,[1],30 nM
same,binding signal,"[2]; apo (150 uM 2,2'-dipyridyl), site fOPI",75 nM
same,binding signal,"[2]; holo (150 uM Fe2+), site fOPI",12 nM
same,binding signal,"[2]; holo (150 uM Fe2+), site fOPIII (low affinity)",125 nM
